This assay deals with full length STAT6 (human) (UniProt P42226). Nature of the assay: cell-based or functional assay.
Sequence of full length STAT6 (human) (P42226 2-847): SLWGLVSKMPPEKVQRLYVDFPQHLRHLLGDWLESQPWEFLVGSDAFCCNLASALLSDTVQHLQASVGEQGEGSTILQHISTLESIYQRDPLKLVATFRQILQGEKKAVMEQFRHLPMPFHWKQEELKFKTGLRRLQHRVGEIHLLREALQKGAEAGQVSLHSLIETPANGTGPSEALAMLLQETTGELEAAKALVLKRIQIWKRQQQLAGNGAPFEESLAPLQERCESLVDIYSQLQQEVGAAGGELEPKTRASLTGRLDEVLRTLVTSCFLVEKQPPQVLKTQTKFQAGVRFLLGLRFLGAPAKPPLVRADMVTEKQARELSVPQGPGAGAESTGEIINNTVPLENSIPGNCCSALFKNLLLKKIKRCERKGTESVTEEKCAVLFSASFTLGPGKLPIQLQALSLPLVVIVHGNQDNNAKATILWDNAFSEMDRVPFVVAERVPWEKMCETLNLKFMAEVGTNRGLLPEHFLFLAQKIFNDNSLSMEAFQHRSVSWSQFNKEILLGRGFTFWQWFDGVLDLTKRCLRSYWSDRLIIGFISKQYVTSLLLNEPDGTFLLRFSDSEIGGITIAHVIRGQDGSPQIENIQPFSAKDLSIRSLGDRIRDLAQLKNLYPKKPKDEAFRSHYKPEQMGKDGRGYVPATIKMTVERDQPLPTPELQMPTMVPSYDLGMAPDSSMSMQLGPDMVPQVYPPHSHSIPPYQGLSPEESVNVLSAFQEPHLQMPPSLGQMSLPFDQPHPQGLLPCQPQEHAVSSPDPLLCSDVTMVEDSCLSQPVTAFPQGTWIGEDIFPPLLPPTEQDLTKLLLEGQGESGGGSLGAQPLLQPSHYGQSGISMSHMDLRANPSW

Substance “NCoA-1 (nuclear coactivator 1), full length (from UniProt P70365 2-1447)” came in with a luciferase reporter with multimerized STAT6 response elements, HepG2 cells, IL-4 induced of less than 3 fold.

The values are drawn from patent US20030092619A1.
